The record followed here is EP1063290A1, “NOVEL DICARBONYLREDUCTASE AND GENE ENCODING THE SAME” (TAISHO PHARMACEUTICAL CO., LTD, priority 1998, dated 1999).

What all share (test): purified protein, by the assay type
Substrate in data set [1]: CC(=O)C(C)=O
Substrate in data set [2]: CCC(=O)C(C)=O
Substrate in data set [3]: O=C(CBr)C(=O)CBr
The settings on record: other: assay at pH 7.0, 25.0 °C.

Substrate in data set [4]: CCCC(=O)C(C)=O
Substrate in data set [5]: CCC(=O)C(=O)CC
Substrate in data set [6]: CCCCC(=O)C(C)=O
The settings on record: other: rate constants for the major substrates, mouse enzyme; pH 7.0; 25.0 °C.

Substrate in data set [7]: O=Cc1ccncc1
The settings on record: other: rate constants for the major substrates, mouse enzyme; pH 7.0; 25.0 °C.

Substrate in data set [8]: O=Cc1cccnc1
The settings on record: other: rate constants for the major substrates, mouse enzyme; pH 7.0; 25.0 °C.

Substrate in data set [9]: COC(=O)C(C)=O
The following applies: other: rate constants for the major substrates, mouse enzyme; pH 7.0; 25.0 °C.

Substrate in data set [10]: CC(=O)C(=O)c1ccccc1
The settings on record: pH 7.0; 25.0 °C.

Substrate in data set [11]: CC(=O)C(C)O
The settings on record: other: rate constants for the major substrates, mouse enzyme; pH 7.0; 25.0 °C.

Substrate in data set [12]: COC(=O)C(=O)c1ccccc1
The following applies: other: rate constants for the major substrates, mouse enzyme; pH 7.0; 25.0 °C.

[13] abbreviates: other: assay at pH 7.0, 25.0 °C.
Where [14] appears, read: other: rate constants for the major substrates, mouse enzyme, pH 7.0, 25.0 °C.

B1: protein hDCR1 (Homo sapiens) (protein)
chain: MELFLAGRRVLVTGAGKGIGRGTVQALHATGARVVAVSRTQADLDSLVRECPGIEPVCVDLGDWEATERALGSVGPVDLLVNNAAVALLQPFLEVTKEAFDRSFEVNLRAVIQVSQIVARGLIARGVPGAIVNVSSQCSQRAVTNHSVYCSTKGALDMLTKVMALELGPHKIRVNAVNPTVVMTSMGQATWSDPHKAKTMLNRIPLGKFAEVEHVVNAILFLLSDRSGMTTGSTLPVEGGFWAC
What is called Km is the substrate concentration at which the rate is half of its maximum. As for B1, the Km entry in [1] (setting [13]) was “(0.25) mM”; in [2] (setting [13]), “(0.26) mM”; in data set [3] it was “(0.016) mM”; in data set [4] (setting [13]), “(0.24) mM”; in [5] (setting [13]) it was “(0.12) mM”.

B2: protein DCR1 (Mus musculus) (protein)
chain: MDLGLAGRRALVTGAGKGIGRSTVLALKAAGAQVVAVSRTREDLDDLVRECPGVEPVCVDLADWEATEQALSNVGPVDLLVNNAAVALLQPFLEVTKEACDTSFNVNLRAVIQVSQIVAKGMIARGVPGAIVNVSSQASQRALTNHTVYCSTKGALDMLTKMMALELGPHKIRVNAVNPTVVMTPMGRTNWSDPHKAKAMLDRIPLGKFAEVENVVDTILFLLSNRSGMTTGSTLPVDGGFLAT
As for B2, the Michaelis-Menten constant (Km) is 200 µM in [6]; 4,400 µM in data set [7]; 7,900 µM in data set [8]; 900 µM in data set [1] (setting [14]); 280 µM in data set [2] (setting [14]); 1,700 µM in [9]. Further, the Km in [10] was 140 µM; in data set [11], 6,500 µM; in [12], 690 µM; in data set [4] (setting [14]), 230 µM; in [5] (setting [14]) it was 130 µM. Moreover, the Vmax came to 4.4 unit/mg in [6]; 0.78 unit/mg in data set [7]; 0.62 unit/mg in data set [8]; 5.7 unit/mg in data set [2] (setting [14]); 2.7 unit/mg in data set [9]; 6.7 unit/mg in [10]. The Vmax in [11] worked out at 0.51 unit/mg; in [12], 8.7 unit/mg; in data set [4] (setting [14]), 4.1 unit/mg; in [5] (setting [14]) it was 6.6 unit/mg. In addition, the Vmax/Km in data set [6] is on record as 22 unit/mg/mM; in data set [7], 0.18 unit/mg/mM; in [8], 0.08 unit/mg/mM; in data set [2] (setting [14]) it was 20 unit/mg/mM; in data set [9] it was 1.6 unit/mg/mM; in [10], 48 unit/mg/mM. Moreover, the Vmax/Km came out at 0.08 unit/mg/mM in [11], 13 unit/mg/mM in data set [12], 18 unit/mg/mM in data set [4] (setting [14]) and 51 unit/mg/mM in data set [5] (setting [14]).
